Data: publication PMC9482650, “Quantitative fragmentomics allow affinity mapping of interactomes” (Nature Communications, 2022)
One block for each binder: values may come before it.

What was measured:
Assay in all cases: holdup assay
Parameters in all cases: key: below the threshold = too weak to quantify, mostly under pKd 3.1 to 4
LIN7C, Q9NUP9 = target: T1, LIN7C, Q9NUP9
T1 sequence (Q9NUP9 88-185, limits assumed, looked up): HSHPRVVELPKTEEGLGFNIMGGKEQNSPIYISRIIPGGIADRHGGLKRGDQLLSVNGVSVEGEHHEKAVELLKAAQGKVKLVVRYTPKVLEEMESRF

MAST1, Q9Y2H9 = target: MAST1, Q9Y2H9
Sequence of MAST1, Q9Y2H9 (Q9Y2H9 962-1065): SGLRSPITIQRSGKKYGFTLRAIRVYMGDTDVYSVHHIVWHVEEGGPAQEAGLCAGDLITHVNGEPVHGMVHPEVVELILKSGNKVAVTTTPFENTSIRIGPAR

GORASP2, Q9H8Y8 = target: GORASP2, Q9H8Y8
LNX1_1, Q8TBB1 = target: LNX1_1, Q8TBB1
Sequence of LNX1_1, Q8TBB1 (Q8TBB1 261-371): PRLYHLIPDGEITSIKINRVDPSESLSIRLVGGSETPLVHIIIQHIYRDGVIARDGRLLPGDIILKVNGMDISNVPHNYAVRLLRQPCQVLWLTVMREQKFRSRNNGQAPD

Inadl_8, Q8NI35 = target: Inadl_8, Q8NI35
Sequence of Inadl_8, Q8NI35 (Q8NI35 1425-1530): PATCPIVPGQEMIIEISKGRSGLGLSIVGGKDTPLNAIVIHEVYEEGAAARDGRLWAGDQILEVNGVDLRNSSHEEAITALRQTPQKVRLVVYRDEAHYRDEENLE

SHANK1, Q9Y566 = target: T2, SHANK1, Q9Y566
T2 sequence (Q9Y566 658-767, limits assumed, looked up): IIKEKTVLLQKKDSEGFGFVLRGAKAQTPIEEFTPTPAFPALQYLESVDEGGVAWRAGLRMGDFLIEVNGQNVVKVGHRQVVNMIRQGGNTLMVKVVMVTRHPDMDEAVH

LNX2_2, Q8N448 = target: T3, LNX2_2, Q8N448
T3 sequence (Q8N448 334-432, limits assumed, looked up): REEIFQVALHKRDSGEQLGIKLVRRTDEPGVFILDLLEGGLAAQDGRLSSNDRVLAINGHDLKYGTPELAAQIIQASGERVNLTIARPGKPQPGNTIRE

PTPN3, P26045 = target: PTPN3, P26045
Sequence of PTPN3, P26045 (P26045 505-587): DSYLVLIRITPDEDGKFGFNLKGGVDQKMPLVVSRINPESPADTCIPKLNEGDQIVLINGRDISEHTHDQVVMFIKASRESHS

DLG3_2, Q92796 = target: T4, DLG3_2, Q92796
T4 sequence (Q92796 221-321, limits assumed, looked up): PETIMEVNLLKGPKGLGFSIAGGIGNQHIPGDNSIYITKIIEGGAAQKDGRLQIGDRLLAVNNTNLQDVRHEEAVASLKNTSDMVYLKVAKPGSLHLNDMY

SYNJ2BP, P57105 = target: T5, SYNJ2BP, P57105
T5 sequence (P57105 8-110, limits assumed, looked up): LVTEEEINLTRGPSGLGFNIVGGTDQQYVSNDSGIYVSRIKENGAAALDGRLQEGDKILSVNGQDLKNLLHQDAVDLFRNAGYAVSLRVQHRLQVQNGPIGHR

SCRIB_1, Q14160 = target: SCRIB_1, Q14160
Sequence of SCRIB_1, Q14160 (Q14160 718-814): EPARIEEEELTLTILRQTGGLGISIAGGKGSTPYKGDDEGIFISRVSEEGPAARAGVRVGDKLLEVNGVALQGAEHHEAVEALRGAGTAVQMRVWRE

GORASP1, Q9BQQ3 = target: GORASP1, Q9BQQ3
Sequence of GORASP1, Q9BQQ3 (Q9BQQ3 1-208): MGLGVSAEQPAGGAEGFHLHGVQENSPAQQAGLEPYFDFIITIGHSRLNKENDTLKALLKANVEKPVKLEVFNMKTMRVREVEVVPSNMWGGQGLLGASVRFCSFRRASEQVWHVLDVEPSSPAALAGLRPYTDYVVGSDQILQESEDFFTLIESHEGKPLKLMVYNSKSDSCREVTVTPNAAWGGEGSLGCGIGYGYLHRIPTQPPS

MPP2, Q14168 = target: T6, MPP2, Q14168
T6 sequence (Q14168 180-250, limits assumed, looked up): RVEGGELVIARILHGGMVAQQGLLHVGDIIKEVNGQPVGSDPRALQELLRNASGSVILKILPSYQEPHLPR

NHERF3_4, Q5T2W1 = target: T7, NHERF3_4, Q5T2W1
T7 sequence (Q5T2W1 373-468, limits assumed, looked up): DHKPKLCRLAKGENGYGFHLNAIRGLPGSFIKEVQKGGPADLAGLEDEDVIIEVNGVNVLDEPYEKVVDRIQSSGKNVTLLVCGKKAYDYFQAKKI

FRMPD3, Q5JV73 = target: FRMPD3, Q5JV73
Sequence of FRMPD3, Q5JV73 (Q5JV73 12-100): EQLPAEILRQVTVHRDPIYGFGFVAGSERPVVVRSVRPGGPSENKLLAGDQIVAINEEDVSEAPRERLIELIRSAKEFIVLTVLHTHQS

DLG4_2, P78352 = target: DLG4_2, P78352
Sequence of DLG4_2, P78352 (P78352 155-259): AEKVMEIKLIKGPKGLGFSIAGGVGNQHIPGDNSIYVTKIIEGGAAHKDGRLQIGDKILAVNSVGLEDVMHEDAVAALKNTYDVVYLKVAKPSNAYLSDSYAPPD

NHERF3_1, Q5T2W1 = target: T8, NHERF3_1, Q5T2W1
T8 sequence (Q5T2W1 4-100, limits assumed, looked up): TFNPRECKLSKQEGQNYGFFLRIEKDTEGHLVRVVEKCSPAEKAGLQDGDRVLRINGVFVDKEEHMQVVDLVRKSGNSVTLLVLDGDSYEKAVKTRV

TJP1_2, Q07157 = target: TJP1_2, Q07157
Sequence of TJP1_2, Q07157 (Q07157 181-274): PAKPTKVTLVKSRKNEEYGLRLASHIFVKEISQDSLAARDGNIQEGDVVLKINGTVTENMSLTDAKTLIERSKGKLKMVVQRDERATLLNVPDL

SNTG1, Q9NSN8 = target: T9, SNTG1, Q9NSN8
T9 sequence (Q9NSN8 52-150, limits assumed, looked up): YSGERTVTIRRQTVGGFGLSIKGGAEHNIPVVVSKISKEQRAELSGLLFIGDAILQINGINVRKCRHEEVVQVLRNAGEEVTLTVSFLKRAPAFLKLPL

RHPN1, Q8TCX5 = target: T10, RHPN1, Q8TCX5
T10 sequence (Q8TCX5 508-602, limits assumed, looked up): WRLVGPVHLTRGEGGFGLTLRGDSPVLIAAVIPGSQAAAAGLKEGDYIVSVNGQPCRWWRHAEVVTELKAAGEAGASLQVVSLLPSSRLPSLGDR

MAGI1_2, Q96QZ7 = target: MAGI1_2, Q96QZ7
Sequence of MAGI1_2, Q96QZ7 (Q96QZ7 456-580): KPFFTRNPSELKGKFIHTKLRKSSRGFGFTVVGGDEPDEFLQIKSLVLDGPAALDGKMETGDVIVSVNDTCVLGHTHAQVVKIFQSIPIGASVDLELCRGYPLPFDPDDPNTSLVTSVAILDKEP

MAGI2_3, Q86UL8 = target: MAGI2_3, Q86UL8
Sequence of MAGI2_3, Q86UL8 (Q86UL8 600-682): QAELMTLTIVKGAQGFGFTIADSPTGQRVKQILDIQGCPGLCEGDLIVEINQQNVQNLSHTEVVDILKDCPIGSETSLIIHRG

NHERF4_2, Q86UT5 = target: NHERF4_2, Q86UT5
Sequence of NHERF4_2, Q86UT5 (Q86UT5 220-308): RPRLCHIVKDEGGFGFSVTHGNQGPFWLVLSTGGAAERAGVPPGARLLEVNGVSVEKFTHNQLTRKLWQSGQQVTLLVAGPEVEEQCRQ

NHERF2_2, Q15599 = target: NHERF2_2, Q15599
Sequence of NHERF2_2, Q15599 (Q15599 142-238): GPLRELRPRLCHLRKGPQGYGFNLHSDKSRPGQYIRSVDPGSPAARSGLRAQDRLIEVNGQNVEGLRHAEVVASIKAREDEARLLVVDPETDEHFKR

DFNB31_3, Q9P202 = target: T11, DFNB31_3, Q9P202
T11 sequence (Q9P202 811-907, limits assumed, looked up): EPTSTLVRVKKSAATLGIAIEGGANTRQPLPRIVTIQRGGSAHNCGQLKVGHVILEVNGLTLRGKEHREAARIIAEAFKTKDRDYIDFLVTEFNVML

PDZRN4_1, Q6ZMN7 = target: PDZRN4_1, Q6ZMN7
Sequence of PDZRN4_1, Q6ZMN7 (Q6ZMN7 213-318): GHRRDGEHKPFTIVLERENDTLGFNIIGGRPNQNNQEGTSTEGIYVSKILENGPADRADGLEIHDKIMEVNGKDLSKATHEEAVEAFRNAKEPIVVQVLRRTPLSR

DLG4_1, P78352 = target: DLG4_1, P78352
Sequence of DLG4_1, P78352 (P78352 62-152): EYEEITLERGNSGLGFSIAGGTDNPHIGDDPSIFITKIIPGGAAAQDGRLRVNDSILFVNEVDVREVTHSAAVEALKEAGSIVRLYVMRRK

[1] = plain residues with an end cap or a label only (N-terminal biotin on a linker: ahx)
[2] = plain residues with an end cap or a label only (N-terminal biotin on a linker: ttds)

pKd (LIN7C, Q9NUP9; [1]): below the threshold
pKd (MAST1, Q9Y2H9; [1]): 3.74
pKd (GORASP2, Q9H8Y8; [1]): 3.52
pKd (LNX1_1, Q8TBB1; [1]): below the threshold
pKd (Inadl_8, Q8NI35; [1]): below the threshold
pKd (SHANK1, Q9Y566; [1]): below the threshold
pKd (LNX2_2, Q8N448; [1]): below the threshold
pKd (PTPN3, P26045; [1]): 3.53
pKd (DLG3_2, Q92796; [1]): below the threshold
pKd (SYNJ2BP, P57105; [1]): below the threshold
pKd (SCRIB_1, Q14160; [1]): 3.58
pKd (GORASP1, Q9BQQ3; [1]): below the threshold
pKd (MPP2, Q14168; [1]): below the threshold
pKd (NHERF3_4, Q5T2W1; [1]): 3.54
pKd (FRMPD3, Q5JV73; [1]): below the threshold
pKd (DLG4_2, P78352; [1]): below the threshold
pKd (NHERF3_1, Q5T2W1; [1]): 3.89
pKd (TJP1_2, Q07157; [1]): below the threshold
pKd (SNTG1, Q9NSN8; [1]): below the threshold
pKd (RHPN1, Q8TCX5; [1]): 3.94
pKd (MAGI1_2, Q96QZ7; [1]): below the threshold
pKd (MAGI2_3, Q86UL8; [1]): below the threshold
pKd (NHERF4_2, Q86UT5; [1]): below the threshold
pKd (NHERF2_2, Q15599; [1]): 3.7
pKd (DFNB31_3, Q9P202; [1]): below the threshold
pKd (PDZRN4_1, Q6ZMN7; [1]): below the threshold
pKd (DLG4_1, P78352; [1]): below the threshold
Binder: RNCSTNDSLL [ADRB2, P07550]

pKd (LIN7C, Q9NUP9; [1]): below the threshold
pKd (MAST1, Q9Y2H9; [1]): 3.65
pKd (GORASP2, Q9H8Y8; [1]): 4.12
pKd (LNX1_1, Q8TBB1; [1]): 4.21
pKd (Inadl_8, Q8NI35; [1]): 4.22
pKd (SHANK1, Q9Y566; [1]): below the threshold
pKd (LNX2_2, Q8N448; [1]): 4.62
pKd (PTPN3, P26045; [1]): 3.92
pKd (DLG3_2, Q92796; [1]): 3.92
pKd (SYNJ2BP, P57105; [1]): 4.26
pKd (SCRIB_1, Q14160; [1]): 3.8
pKd (GORASP1, Q9BQQ3; [1]): 3.86
pKd (MPP2, Q14168; [1]): below the threshold
pKd (NHERF3_4, Q5T2W1; [1]): below the threshold
pKd (FRMPD3, Q5JV73; [1]): below the threshold
pKd (DLG4_2, P78352; [1]): 4.13
pKd (NHERF3_1, Q5T2W1; [1]): 4.41
pKd (TJP1_2, Q07157; [1]): below the threshold
pKd (SNTG1, Q9NSN8; [1]): 3.55
pKd (RHPN1, Q8TCX5; [1]): 4.03
pKd (MAGI1_2, Q96QZ7; [1]): 4.03
pKd (MAGI2_3, Q86UL8; [1]): below the threshold
pKd (NHERF4_2, Q86UT5; [1]): below the threshold
pKd (NHERF2_2, Q15599; [1]): below the threshold
pKd (DFNB31_3, Q9P202; [1]): below the threshold
pKd (PDZRN4_1, Q6ZMN7; [1]): below the threshold
pKd (DLG4_1, P78352; [1]): 4.22
Binder: KTSAHHATFV [RGS12, O14924]

pKd (LIN7C, Q9NUP9; [1]): below the threshold
pKd (MAST1, Q9Y2H9; [1]): 3.94
pKd (GORASP2, Q9H8Y8; [1]): below the threshold
pKd (LNX1_1, Q8TBB1; [1]): below the threshold
pKd (Inadl_8, Q8NI35; [1]): below the threshold
pKd (SHANK1, Q9Y566; [1]): below the threshold
pKd (LNX2_2, Q8N448; [1]): below the threshold
pKd (PTPN3, P26045; [1]): 3.64
pKd (DLG3_2, Q92796; [1]): below the threshold
pKd (SYNJ2BP, P57105; [1]): below the threshold
pKd (SCRIB_1, Q14160; [1]): below the threshold
pKd (GORASP1, Q9BQQ3; [1]): below the threshold
pKd (MPP2, Q14168; [1]): below the threshold
pKd (NHERF3_4, Q5T2W1; [1]): below the threshold
pKd (FRMPD3, Q5JV73; [1]): below the threshold
pKd (DLG4_2, P78352; [1]): below the threshold
pKd (NHERF3_1, Q5T2W1; [1]): below the threshold
pKd (TJP1_2, Q07157; [1]): below the threshold
pKd (SNTG1, Q9NSN8; [1]): below the threshold
pKd (RHPN1, Q8TCX5; [1]): 3.98
pKd (MAGI1_2, Q96QZ7; [1]): below the threshold
pKd (MAGI2_3, Q86UL8; [1]): below the threshold
pKd (NHERF4_2, Q86UT5; [1]): below the threshold
pKd (NHERF2_2, Q15599; [1]): 4.25
pKd (DFNB31_3, Q9P202; [1]): below the threshold
pKd (PDZRN4_1, Q6ZMN7; [1]): below the threshold
pKd (DLG4_1, P78352; [1]): below the threshold
Binder: SSSNSEDTEM [NHERF3, Q5T2W1]

pKd (LIN7C, Q9NUP9; [2]): 4.45
pKd (MAST1, Q9Y2H9; [2]): 4.92
pKd (GORASP2, Q9H8Y8; [2]): below the threshold
pKd (LNX1_1, Q8TBB1; [2]): below the threshold
pKd (Inadl_8, Q8NI35; [2]): below the threshold
pKd (SHANK1, Q9Y566; [2]): 4.71
pKd (LNX2_2, Q8N448; [2]): below the threshold
pKd (PTPN3, P26045; [2]): 4.95
pKd (DLG3_2, Q92796; [2]): 4.35
pKd (SYNJ2BP, P57105; [2]): 4.91
pKd (SCRIB_1, Q14160; [2]): 5.36
pKd (GORASP1, Q9BQQ3; [2]): 3.61
pKd (MPP2, Q14168; [2]): below the threshold
pKd (NHERF3_4, Q5T2W1; [2]): 3.94
pKd (FRMPD3, Q5JV73; [2]): 3.59
pKd (DLG4_2, P78352; [2]): 4.15
pKd (NHERF3_1, Q5T2W1; [2]): 5.24
pKd (TJP1_2, Q07157; [2]): below the threshold
pKd (SNTG1, Q9NSN8; [2]): 4.36
pKd (RHPN1, Q8TCX5; [2]): 4.75
pKd (MAGI1_2, Q96QZ7; [2]): 3.78
pKd (MAGI2_3, Q86UL8; [2]): 3.5
pKd (NHERF4_2, Q86UT5; [2]): below the threshold
pKd (NHERF2_2, Q15599; [2]): 4.87
pKd (DFNB31_3, Q9P202; [2]): below the threshold
pKd (PDZRN4_1, Q6ZMN7; [2]): 5.24
pKd (DLG4_1, P78352; [2]): 4.06
Binder: SPLHSLETSL [ATP2B1, P20020]

pKd (LIN7C, Q9NUP9; [2]): below the threshold
pKd (MAST1, Q9Y2H9; [2]): 4.16
pKd (GORASP2, Q9H8Y8; [2]): 4.21
pKd (LNX1_1, Q8TBB1; [2]): below the threshold
pKd (Inadl_8, Q8NI35; [2]): below the threshold
pKd (SHANK1, Q9Y566; [2]): 4.11
pKd (LNX2_2, Q8N448; [2]): below the threshold
pKd (PTPN3, P26045; [2]): below the threshold
pKd (DLG3_2, Q92796; [2]): below the threshold
pKd (SYNJ2BP, P57105; [2]): below the threshold
pKd (SCRIB_1, Q14160; [2]): below the threshold
pKd (GORASP1, Q9BQQ3; [2]): below the threshold
pKd (MPP2, Q14168; [2]): below the threshold
pKd (NHERF3_4, Q5T2W1; [2]): below the threshold
pKd (FRMPD3, Q5JV73; [2]): below the threshold
pKd (DLG4_2, P78352; [2]): below the threshold
pKd (NHERF3_1, Q5T2W1; [2]): below the threshold
pKd (TJP1_2, Q07157; [2]): below the threshold
pKd (SNTG1, Q9NSN8; [2]): below the threshold
pKd (RHPN1, Q8TCX5; [2]): below the threshold
pKd (MAGI1_2, Q96QZ7; [2]): below the threshold
pKd (MAGI2_3, Q86UL8; [2]): below the threshold
pKd (NHERF4_2, Q86UT5; [2]): below the threshold
pKd (NHERF2_2, Q15599; [2]): below the threshold
pKd (DFNB31_3, Q9P202; [2]): below the threshold
pKd (PDZRN4_1, Q6ZMN7; [2]): below the threshold
pKd (DLG4_1, P78352; [2]): below the threshold
Binder: DPLTPSRSQL [DGKK, Q5KSL6]
